Experimental data from patent publication US20130115224A1 (published 2013).

Key:
recombinant human TNFα [1] = molecular target: T1, recombinant human TNFα (human, UniProt P01375 77-233, biotinylated (2:1 molar ratio of biotin to rhTNFα) in the SPR assays; 125I-labeled in the receptor binding assays); assay: SPR (BIAcore), scFv over biotinylated rhTNFα
T1 construct: also called rhTNFα; rhTNF

recombinant human TNFα [2] = molecular target: T1, recombinant human TNFα; assay: SPR (BIAcore), scFv over biotinylated rhTNFα; remark: listed apart in the source

T1 sequence (P01375 77-233 limits assumed): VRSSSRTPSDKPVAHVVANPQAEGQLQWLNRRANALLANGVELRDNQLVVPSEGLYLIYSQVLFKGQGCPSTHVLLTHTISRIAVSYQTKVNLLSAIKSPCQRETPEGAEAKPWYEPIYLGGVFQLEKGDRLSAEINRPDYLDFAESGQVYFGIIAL

B1: 3C-H2 / LOE7 scFv (scFv, V domains shown)
VH: QVQLVESGGGLVQPGRSLRLSCAASGFTFDDYAMHWVRQAPGKGLDWVSAITWNSGHIDYADSVEGRFAVSRDNAKNALYLQMNSLRPEDTAVYYCAKASYLSTASSLEYWGQGTLVTVSS
VL: not shown
fold faster off rate than with the D2E7 VH CDR3 (recombinant human TNFα [1]): 3 fold
koff (recombinant human TNFα [2]): 0.0015 s⁻¹

B2: 2SD4 VH / VLLOE5 scFv (scFv, V domains shown)
VH: QVQLVESGGGLVQPGRSLRLSCAASGFTFDDYAMHWVRQAPGKGLDWVSAITWNSGHIDYADSVEGRFAVSRDNAKNALYLQMNSLRPEDTAVYYCTKASYLSTSSSLDNWGQGTLVTVSS
VL: DIQMTQSPSSLSASIGDRVTITCRASQGIRNYLAWYQQKPGKAPKLLIYAASTLQSGVPSRFSGSGSGTDFTLTISSLQPEDVATYYCQKYNSAPYYFGQGTKVEIK
koff (recombinant human TNFα [2]): 0.0116 s⁻¹
